Literature values, collected in paper PMC9406205.

Assays:
[1] = molecular target: GAPDH (Chlamydomonas reinhardtii) (UniProt P50362); test: surface plasmon resonance
[2] = molecular target: PRK (Chlamydomonas reinhardtii) (UniProt P19824); test: surface plasmon resonance
Sequence of UniProt P19824 (P19824 32-375): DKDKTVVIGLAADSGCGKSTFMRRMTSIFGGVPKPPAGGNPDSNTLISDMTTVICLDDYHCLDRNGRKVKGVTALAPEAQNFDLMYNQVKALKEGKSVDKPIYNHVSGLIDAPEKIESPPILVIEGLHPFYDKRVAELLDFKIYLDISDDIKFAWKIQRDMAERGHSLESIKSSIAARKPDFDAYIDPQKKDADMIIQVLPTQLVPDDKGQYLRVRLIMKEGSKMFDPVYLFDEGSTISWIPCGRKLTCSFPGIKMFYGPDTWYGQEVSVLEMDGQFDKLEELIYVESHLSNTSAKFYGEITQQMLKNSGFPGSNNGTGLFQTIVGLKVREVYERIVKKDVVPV

Substance: CP12 (from UniProt A6Q0K5)
- Kd [1]: 0.44 nM

Substance: GAPDH-CP12 subcomplex (from UniProt P50362)
- Kd [2]: 60 nM
